The results in this text go back to PMC3269792.

Experiment [1] concerns the target KCNQ1-KCNQ1 dimer (QQ) of the tandem EQQ construct with I145C in the distal KCNQ1 subunit (human). The experiment in a line: cross-linking.
Experiment [2] addresses KCNQ1-KCNQ1 dimer (QQ) of the tandem EQQ construct with I145C in the proximal KCNQ1 subunit (human). The experiment in a line: cross-linking.

Turning to “KCNE1 K41C subunit of the tandem EQQ construct, cut off by HRV-3C protease (natural protein)”, the percent cross-linking stood at 50% in experiment [1] and 90% in experiment [2].
